The values below come from the nanobody polyreactivity screen of Harvey et al. (2022).

The data set can be described thus: yeast display, Sf9 membrane polyspecificity reagent, FACS + sequencing; frameworks hold sequencing errors. In a few lines:
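Polyreactivity labels are assigned by the sorting gate from which each nanobody was recovered. The gates were low and high (top ~1%), set on anti-HA fluorescence for expression and streptavidin fluorescence for reagent binding. Before sorting, galactose-induced (36–48 hours) yeast display cells were stained for 1 hour at 4 °C with 10% biotinylated, detergent-solubilized Sf9 membrane reagent.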
On to “QVQLVESGGGLVQAGGSLRLSCAASGLTLRYYVMGWYRQAPGKERELVASITRSGGSTSYADSVKGRFTISRDNAKNTVYLQMNSLQPEDTAVYYCNRRTYVGTRASFLYYYWGQGTQVTVSA”, for which the “polyreactivity (PSR sort gate)” value is “high polyreactivity”. To “QVQLVESGGGLVQAGGSLRLSCAASGLTLTSNAMGWYRQAPGKERELVAAINGSGGITYYADSVKGRFTISRDNAKNTVYLQMNSLKPEDTAVYYCNTVHYNLDYEYDYWGQGTQVTVSS” belongs “low polyreactivity”; to “QVQLVESGGGLVQAGGSLRLSCAASGLTLYINAMGWYRQAPGKERELVAAIRTVGRTRYADSVKGRFTISRDNAKNTVYLQMNSLKPEDTAVYYCNARRYLRGYGYGYWGQGTQVTVSS”, “high polyreactivity”. “QVQLVESGGGLVQAGGSLRLSCAASGLTLYKNGMGWYRQAPGKERELVARITSGGRTYYADSVKGRFTISRDNAKNTVYLQMNSLKPEDTAVYYCNAVKSYASLCAGFYYWGQGTQVTVSS”: the “polyreactivity (PSR sort gate)” value is reported as “high polyreactivity”. Consider “QVQLVESGGGLVQAGGSLRLSCAASGLTLYRYAMGWYRQPPGKEREMVAGISWGGGSTYYADSVKGRFTISRDNAKNTVYLQMNSLKPEDTAVYYCAAGRLLYIPRYYYWGQGTQVTVSS”, for which the “polyreactivity (PSR sort gate)” value is “high polyreactivity”. As to “QVQLVESGGGLVQAGGSLRLSCAASGLTLYTYAMGWYREAPGKESELVAAISKNGGRTYYADSVKGRFTISRDNAKNTVYLQMNSLKPEDTAVYYCAARARVGTVTFDFWGQGTQVTVSS”, the “polyreactivity (PSR sort gate)” value was “high polyreactivity”.

In the case of “QVQLVESGGGLVQAGGSLRLSCAASGLTSIHYMGWSRQAPGKERELVATITSSTGSTYYADSVKGRFTISRDNAKNTVYLQMNSLKPEDTAVYYCAAESFGADGPYQPSYDYWGQGTQVTVSS”, the “polyreactivity (PSR sort gate)” value is listed as “low polyreactivity”.

As for “QVQLVESGGGLVQAGGSLRLSCAASGLTSLGNAMGWYRQAPGKERELVAAITRTGTSTYYADSVKGRFTISRDNAKNTVYLQMNSLKPEDTAVYYCAALDRYSTEYKYQLYKQEYDYWGQGTQVTVSS”, the “polyreactivity (PSR sort gate)” value is recorded as “low polyreactivity”.

For “QVQLVESGGGLVQAGGSLRLSCAASGLTVDTYDMGWYIQAPGKERELVAAIDWSGVSTYYADSVKGRFTISRDNAKNTVYLQKNSLKTEDTAVYYCAADLLQYDIASWDYTYDYWGQGTQVTVSS”, the “polyreactivity (PSR sort gate)” value is given as “low polyreactivity”. The entry for “QVQLVESGGGLVQAGGSLRLSCAASGLTYAKYVMRWYRQAPGNERELVAAISRSGGSTFYADSVKGRFTISRDNAKNTVYLQMNSLKPEDTAVYYCAAAAWDPKGSRYDYWGQGTQVTVSS” is “low polyreactivity”; for “QVQLVESGGGLVQAGGSLRLSCAASGLTYSNAMGWYRQAPGKERELVAAISWRGGRTYYADSVKGRFTISRDNAKNTVYLQMNSLKPEDTAVYYCAKYAHGHKWYGYWGQGTQVTVSS” it is “low polyreactivity”. To “QVQLVESGGGLVQAGGSLRLSCAASGLTYYYYAKGWYRQAPGKERDFVAAISRSGGTTYYADSVKGRFTISRDNAKNTDYLQMNSLKPEDTAVYYCNAQWWRYRPSQVIFDYWGQGTQVNVSS” belongs “high polyreactivity”. Turning to “QVQLVESGGGLVQAGGSLRLSCAASGMGWYRQAPGKERELVAAITSTDGSTYYADSVKGRFTISRDNAKNTVYLQMNSLTPEDTAVYYCAVEPYLWPVFSDDDYWGQGTQVTVSS”, the “polyreactivity (PSR sort gate)” value is “low polyreactivity”. On to “QVQLVESGGGLVQAGGSLRLSCAASGNIFARYAMGWYRQAPGKERELVAAISRSGGSTYYADSVKGRFTISRDNAKNTVYLQMNSLKPEDTAVYYCNAKSYGVLYWFAYDYWGQGTQVTVSS”, for which the “polyreactivity (PSR sort gate)” value is given as “high polyreactivity”. For “QVQLVESGGGLVQAGGSLRLSCAASGNIFAVNAMGWSRQAPGKERELVARIRYSTGRTYYADSVKGRFTISRDNAKNTVYLQMNSLKPEDTAVYYCATDYYTTRVPGGYDYWGHGTQVTVSS”, the “polyreactivity (PSR sort gate)” value is recorded as “high polyreactivity”.

Consider “QVQLVESGGGLVQAGGSLRLSCAASGNIFAVYAMGWYRQAPGKERELVAAISYSSTRTYYADSVKGRFRISRDNAKNTVYLQMNSLKPEDTAVYYCAVETWWDYDYWGQGTQVTVSS”, for which the “polyreactivity (PSR sort gate)” value is given as “high polyreactivity”. The entry for “QVQLVESGGGLVQAGGSLRLSCAASGNIFAWSAMGWYRQAPGKERELVARITVGSTYYADSVKGRFTISRDNAKNTVYLQMNSLKPEDTAVYYCNKDSGEDDRWPYDYWGQGTQVTVSS” is “low polyreactivity”; for “QVQLVESGGGLVQAGGSLRLSCAASGNIFAYYAMGWYRQAPGKERELVAAITDSGGNTFYADSVKGRFTISRDNAKNTVYLQMNSLKPEDTAVYYCAADPDGWGFVYPRYDYWGQGTQVTVSS” it is “low polyreactivity”; for “QVQLVESGGGLVQAGGSLRLSCAASGNIFAYYAMGWYRQAPGKERELVAGISRRGGNTYYADSVKGRFTISRDNAKNTVYLQMNSLKPEDTAVYYCAAKTYSGQRFDYWGQGTQVTVSS” it is “high polyreactivity”. In the case of “QVQLVESGGGLVQAGGSLRLSCAASGNIFDTYVMGWYRQAPGKERELVAAITSDGGTYYADSVKGRFTIARDNAKNTVYLQMNSLKPEDTAVYYCAADTYYYPIQDYWGQGTQVTVSS”, the “polyreactivity (PSR sort gate)” value was “low polyreactivity”.
